Measurements from the domain aggregation screens of Martell et al. (2025).

Experiment: soluble fraction after stress (log2 fold change); higher = more stays soluble; pooled small domains, quantitative proteomics
Conditions: stress: 75 degC
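Further: 20 min heating vs room temperature control held 20 min.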

Point of comparison: “HMQLEPLITSVIPVNFAKAGEVATTIKGKEVGLVSDRGSITAESRTNVLIVKDIKKNVDDISAMVKRLD”, “soluble fraction (log2)” value -0.00331. Against it:
- HMQKIENYDQFVQAFKRLSGLDLKLYKENQMKRRINNFINNHGFKENYDQFFQAITGNKELYNAFFKHLTI — lower, -0.527
- HMQKKYLAVKEYLLEQINSGAYQPDEPIPPEREMAAMLGVNRMTLRRAVEELMYEGLLIRKKGSGTFLTK — lower, -2.03
- HMQKLSPKQRRGNIIELIKENPTITAKNISTIFNLNQRTIERDLAKLTEEGYIKYEGSSKDGKWVFL — within 0.2 log units, -0.134
- HMQKNKSVLFKDIVIAFNQNPKKLFNYKQLAADLDIHSEAERMLISQLLNDLKDQNFLEEVERGKYKLKL — lower, -0.766
- HMQKPIKPVKMHTVGPKENLSSIGRMYEVNGRVLANYNNIDYDKGLTIGQVLKIPPKGTTLEQVT — higher, 0.853
- HMQKTIDWSQVDKEQYLSAMERSPVNDLEIKAILAKALTSDINNRELFMKGLDHSYYFEGYQLFKSE — lower, -0.526
- HMQKTQVVEVAGKSYQLTKMDARTGSYVAFKVAGVLAPSGGKTAEMAAALMGMPRKDFDELQSLLLRTV — within 0.2 log units, 0.025
- HMQKYSTIIGVIELRQSGIGYRTTKKRYNIGNSTVTLIMNRFHELGLSLEELKAMPPKKVEEAFYPPE — lower, -3.22
- HMQLASILDDIPGIGKKRKENLLTHFGSFSKIQSADIDALAEVPGISRDLAETIHTYLKTHQ — within 0.2 log units, -0.0246
- HMQLDLSDPSKNKLDSIVSLPIKSLKAVEANGEILFMSENGRFVLRGQLYDIWYKDTLDTSAQIQDAATRI — higher, 0.331
- HMQLDLTSTLDHMYKQMRNDHPRALLMAVEKEMVLRALKETDGNQLRASDILGISRSTLRKRIEEFDINS — lower, -1.24
- HMQLGEEAGDELVAIVRSVINDNDKALADYLAGKSSALKFLLGQVMRQTKGRADHALVQSLLEAELEAL — within 0.2 log units, -0.0341
- HMQLHDTMKRVYEALDISEQKLAESLGLKLSTIINWQKNGISKIGINKLNQTFGLDMQWILTGQGEPFI — within 0.2 log units, -0.0293
- HMQLLDIGSAVRIIREPYFGRLGTVVELPPELMEIESGTHARVLKAKLDDGTVAVVPRANVEIIVE — lower, -0.785
- HMQLNNTDELEKIILKILENNPKQVDQFLAGKQKLLGFFVGQAMRATSGKANPKTVNDLLEKFLSK — within 0.2 log units, 0.027
- HMQLPDLDEIRQMRKRLDLSQRELAALAGVSQSLIAKIEKGSIDPSYDNVRKIFNAFENILKKRALE — within 0.2 log units, -0.119
- HMQLPIGDVKLSVEHLSSGTALQDISFEVHRGEIFGFLGLVGAGRSETAETIFGLREKTDGKISIDGTVL — within 0.2 log units, -0.0579
- HMQLPTNAAAILRYLSSGAVKGVGSATAVRIVEKFGEETLNILEQDPLRLAEIRGISRDKAKKIGEDFASQ — lower, -0.322
- HMQLSMLPYGFARRHGVLLVEQDEQPTLIHRAGITATVIAEVQRVAGQIDAWRLVDDARFDQQLAEVYRD — lower, -1.33
- HMQLTPAQHAILAYAIEHTGGKIEWFPDNIKGGARTKVLEGLFNKALITRDSTDWFVAAEGYDALGR — lower, -0.949
- HMQLYSLEVLSKKKVDLIENNKNLINLYFNKENGEYSYRLIFKNRKELYQVKDTLDNSSDVVSIKLDL — lower, -2.27
- HMQMGLNEAYRVLHVSPDAPWREVQSAYKERMAKSHPDKVSHLGEELQEKAKELTVEINKAYNTIKRYKK — higher, 0.47
- HMQMKDRILRIMEHEGISPSKFAEEIGIQRSAMSHIISGRNNPSLDVLTKIMQRFTYVDTDWLLFGKGSMV — lower, -1.99
- HMQMPDLTGKPRAEAVTTLAALGFTDVKFLDASAGDEPLDYVADQVVRTSPEAGAALASGQQITIYLAT — within 0.2 log units, -0.203
- HMQMSDTSMIRDLVLQVLAENPQSIEDFKNGKDRAVGFLVGMVMKKSQGKANPQITNQMIVEELKK — lower, -0.228
- HMQMSERENTILLTKRYIERGEYERAMNLLDSLLIKNALDEEALAMIDEIIALKAGASLQDFPRY — lower, -0.797
- HMQMTTPQMVPLFTDLSVDDSASIIKDLERQAVPYQIKSDGAIIMVPKDKVTRLRMKLAESGLPK — higher, 0.488
- HMQNDDLTKLDGIGPYIEQRLNDIGIYNYEQLSKLNTEDIQKITELIDFFPGRIERDNWVSQAQLLKI — lower, -0.515
- HMQNDILIQADEIVGDYFDMDKEALKMNKQAVIADIEKRQATAQGDEASALHYAKQKVENEFEDDGSQKD — within 0.2 log units, 0.109
- HMQNKFLDIVGEIEVKAVDYYLLKDTSGLVIKFPKNLVFANGLKIADNKIGLTVSLYGAWVHEET — lower, -1.08
- HMQNKYIIKQGNSGELVEVLQELLNLKQDGVFGPQTKKAVIAFQQKHKLVADGIVGPMSWRKLNFNPEELF — lower, -2.36
- HMQNLISSDEAKNIALQHANLTDNQVTFIKVSKDYDDGIHIYEVEFHYNNREYNYDINAINGTILSYEQ — lower, -1.34
- HMQNNKITIYISGAVNRPGIVTIESDKRLYDAVELLGGTTKEADLNGVNLSVRLEDEQHYIIPKIGEA — lower, -0.432
- HMQNNWFYEENGQRKGPVSENEMVQFIKSSVISHGTSVWKQGFPDWLKVENTDLRVHLDNSAP — within 0.2 log units, 0.105
- HMQNREQNILDGKSILDKELKRVGLLNQSAAIMAQEMKFNSQDDLFAALGSGATRIGQIINHLQKQS — within 0.2 log units, -0.00272
- HMQNSMTTTPDVVGKTGTFAEQMLKAANLNVQFAGDSSGKVVAQDVEAGTSAAYGTIITLTMDS — higher, 0.693
- HMQNVKIKAEVKGEVISPGVYELDEESRIQDLIDASGGFSDKAYYDNINLSMKLKDEMVLVVYDKDKI — lower, -0.271
